Reference: patent US20090208538A1 (ROCKEFELLER UNIVERSITY, published 2009)

Columns and labels:
[1] = molecular target: T1, HLA-A*0201 (human); assay: iTopia off-rate;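 also: Half-life of peptide complexes with plate-bound HLA-A2, peptides loaded 18 h at 21 C, washed, then held at 37 C over several time points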
T1 construct: also called HLA-A2.1; HLA A2.1

[2] = molecular target: T1, HLA-A*0201; assay: iTopia binding;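 also: each peptide tested for binding to HLA-A2 molecules immobilized on plates, using a commercial screening kit run per its supplied protocol and reagents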
[3] = molecular target: T1, HLA-A*0201; assay: iTopia affinity;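 also: peptide affinity for plate-bound HLA-A2 molecules (iTopia system), with ED50 derived from an eight-point serial peptide dilution series run under binding assay conditions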
[4] = molecular target: T1, HLA-A*0201; assay: iTopia net score;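 also: combined score from peptide binding, ED₅₀ and half-life of peptide complexes with plate-bound HLA-A2 molecules, computed by a proprietary formula in iTopia software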

SLTETIECL [cdr2 114-122 SLTETIECL]
t1/2 [1]: 9.3
binding vs positive control [2]: > 30%
ED50 [3]: 4 µM
iScore [4]: 0.518
